Data on two molecules can be found in article PMC7873624 (Journal of molecular biology, 2020).

Assay [1] addresses recombinant USP7 TRAF domain (residues 62–205) (UniProt Q93009 62-205). Briefly: ITC.
Assay [2] deals with recombinant USP7 UBL1-2 (residues 535–775) (UniProt Q93009 535-775). Briefly: ITC.
Sequence of recombinant USP7 UBL1-2 (residues 535–775) (Q93009 535-775): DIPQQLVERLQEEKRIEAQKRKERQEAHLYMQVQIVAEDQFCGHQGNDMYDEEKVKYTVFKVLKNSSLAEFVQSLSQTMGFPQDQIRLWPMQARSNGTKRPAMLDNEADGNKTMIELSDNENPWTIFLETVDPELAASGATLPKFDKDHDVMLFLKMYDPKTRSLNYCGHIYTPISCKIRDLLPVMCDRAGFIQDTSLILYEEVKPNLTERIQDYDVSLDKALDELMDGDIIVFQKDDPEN

Sequence of recombinant USP7 TRAF domain (residues 62–205) (Q93009 62-205): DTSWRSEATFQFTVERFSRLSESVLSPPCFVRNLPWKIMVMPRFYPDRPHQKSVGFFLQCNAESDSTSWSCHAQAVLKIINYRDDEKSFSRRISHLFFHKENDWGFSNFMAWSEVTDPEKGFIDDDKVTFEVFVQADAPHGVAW

On to SPCEPGTSGFN [Pol ι peptide 573–584], for which the Kd in assay [1] was 4.8 µM. Regarding SGKHSFKMKDT [Pol ι peptide 438–448], the Kd in assay [2] amounted to 169 µM.
